In experiment [1] the target is FbxwD-FLAG (endogenous locus tagged) (D. discoideum). Nature of the experiment: co-IP; FbxwD-FLAG precipitated with anti-FLAG M2 magnetic beads from S21 lysates of phyA+ or phyA– vegetative or slug cells, 4 °C 1 h; Skp1 detected by Western blot (pAb UOK77), densitometry. In general terms: In western blotting, separated proteins are transferred to a membrane and probed.

Experiment [2] concerns the target JcdI-FLAG (endogenous locus tagged) (D. discoideum) (UniProt Q55CL5). Description: co-IP; FLAG-JcdI or JcdI-FLAG precipitated with anti-FLAG M2 beads from NP-40 lysates of vegetative or slug cells, 4 °C 1 h, washed in 50 mM Tris-HCl pH 8.0, 150 mM NaCl, 0.2% NP-40; Skp1 detected by Western blot.
Chain of UniProt Q55CL5 (Q55CL5 entry or part of it): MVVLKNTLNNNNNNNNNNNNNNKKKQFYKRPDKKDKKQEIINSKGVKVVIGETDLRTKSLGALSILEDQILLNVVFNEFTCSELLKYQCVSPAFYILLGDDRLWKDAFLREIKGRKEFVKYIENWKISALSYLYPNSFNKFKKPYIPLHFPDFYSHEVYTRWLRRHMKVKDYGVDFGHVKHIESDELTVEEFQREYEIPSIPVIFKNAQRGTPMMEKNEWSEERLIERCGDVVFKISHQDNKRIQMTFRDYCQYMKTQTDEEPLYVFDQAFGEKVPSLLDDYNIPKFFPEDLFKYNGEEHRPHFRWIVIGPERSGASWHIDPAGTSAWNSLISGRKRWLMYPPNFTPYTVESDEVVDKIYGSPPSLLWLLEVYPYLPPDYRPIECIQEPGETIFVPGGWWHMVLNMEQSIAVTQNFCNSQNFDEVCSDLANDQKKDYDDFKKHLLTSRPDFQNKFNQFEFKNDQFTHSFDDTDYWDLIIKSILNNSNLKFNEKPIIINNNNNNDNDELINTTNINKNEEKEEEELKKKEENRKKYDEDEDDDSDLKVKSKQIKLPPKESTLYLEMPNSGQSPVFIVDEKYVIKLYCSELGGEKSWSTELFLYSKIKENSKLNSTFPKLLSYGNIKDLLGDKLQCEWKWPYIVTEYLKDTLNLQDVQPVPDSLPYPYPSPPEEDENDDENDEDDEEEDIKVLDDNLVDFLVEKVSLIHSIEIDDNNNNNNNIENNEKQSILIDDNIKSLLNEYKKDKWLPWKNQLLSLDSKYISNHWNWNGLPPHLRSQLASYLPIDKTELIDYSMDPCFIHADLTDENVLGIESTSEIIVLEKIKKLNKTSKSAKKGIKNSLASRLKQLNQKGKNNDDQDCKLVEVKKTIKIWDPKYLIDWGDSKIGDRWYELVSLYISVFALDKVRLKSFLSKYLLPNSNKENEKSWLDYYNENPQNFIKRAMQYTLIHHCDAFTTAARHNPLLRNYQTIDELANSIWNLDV

We go through one substance from paper PMC9485057.

As to “Skp1 (endogenous, from phyA+ / gnt1+ cells; hydroxylated and glycosylated) (from UniProt P52285 1-162) (natural protein)”, in experiment [1], the fold more Skp1 co-IPed with FbxwD-FLAG, phyA+ versus phyA– slug cells amounted to 4 fold and the fold more Skp1 co-IPed with FbxwD-FLAG, phyA+ versus phyA– vegetative cells stood at 2.5 fold. Also, in experiment [2], the fold more Skp1 (Skp1:JcdI ratio) co-IPed with JcdI-FLAG, gnt1+ versus gnt1– vegetative cells was found to be 2 fold and the fold preferential interaction with JcdI-FLAG, gnt1+ versus gnt1– slug cells is 2 fold.
